Laboratory results published in article PMC10786891, “Massively parallel profiling of RNA-targeting CRISPR-Cas13d”.

Biological target: T1, EsCas13d, nuclease-dead (Eubacterium siraeum, UniProt B0MS50, R295A;H300A;R849A;H854A)
T1 sequence: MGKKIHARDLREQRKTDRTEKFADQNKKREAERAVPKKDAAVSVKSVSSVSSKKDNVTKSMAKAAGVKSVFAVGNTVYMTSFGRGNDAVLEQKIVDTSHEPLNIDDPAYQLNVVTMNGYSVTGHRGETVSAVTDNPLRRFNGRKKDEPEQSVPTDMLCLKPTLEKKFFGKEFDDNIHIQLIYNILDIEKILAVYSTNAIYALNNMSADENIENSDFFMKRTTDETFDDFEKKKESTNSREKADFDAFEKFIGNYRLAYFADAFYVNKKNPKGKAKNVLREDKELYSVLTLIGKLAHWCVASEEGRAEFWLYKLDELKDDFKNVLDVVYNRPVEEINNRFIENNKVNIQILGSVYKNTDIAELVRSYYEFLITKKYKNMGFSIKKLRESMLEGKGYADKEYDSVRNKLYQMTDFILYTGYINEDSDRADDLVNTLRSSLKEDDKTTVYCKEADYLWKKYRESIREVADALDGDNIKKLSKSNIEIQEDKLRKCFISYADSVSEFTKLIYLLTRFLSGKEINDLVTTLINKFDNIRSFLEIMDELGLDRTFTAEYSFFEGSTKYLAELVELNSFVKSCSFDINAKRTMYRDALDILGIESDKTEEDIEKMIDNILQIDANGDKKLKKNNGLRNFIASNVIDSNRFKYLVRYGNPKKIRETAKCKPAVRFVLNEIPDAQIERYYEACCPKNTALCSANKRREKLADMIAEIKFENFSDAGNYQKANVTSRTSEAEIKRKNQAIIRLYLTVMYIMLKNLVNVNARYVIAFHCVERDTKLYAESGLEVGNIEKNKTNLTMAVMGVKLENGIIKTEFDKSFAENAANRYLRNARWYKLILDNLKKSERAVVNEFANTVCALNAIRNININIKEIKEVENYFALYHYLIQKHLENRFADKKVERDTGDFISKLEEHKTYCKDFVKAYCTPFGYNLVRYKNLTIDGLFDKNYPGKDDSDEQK
Experiment: crRNA (strand 1, pre-loaded); Mg2+; 40 mM Tris-HCl pH 7.5, 150 mM NaCl, 6 mM MgCl2, 1 mM DTT, 0.1% Tween-20, 0.2 mg/ml BSA; 25 C; 10 min per concentration, then washed
Conditions: tags: His6-TwinStrep-SUMO cleaved; N-terminal SNAP kept (SNAP-Surface 488); label: 3' end held by stalled T7 RNA polymerase

Row | Binder | Kd [nM]
1 | target 1 U8A,U11C (mixed) RNA 1: CACCCGUGCAAAAAUGCAGGGGUCUAAAACUGAGCGGAUAACCUCUCUAUGG RNA 2: GGGAAUGGAUCCACAUCUACGAAUUCGUACCAUAGAGAGGCUAACCGCUCACCGAGAUCGGAAGAGCACACGU | 12.6 ± 0.9
2 | target 1 U11A,C22U (mixed) RNA 1: CACCCGUGCAAAAAUGCAGGGGUCUAAAACUGAGCGGAUAACCUCUCUAUGG RNA 2: GGGAAUGGAUCCACAUCUACGAAUUCGUAUCAUAGAGAGGAUAUCCGCUCACCGAGAUCGGAAGAGCACACGU | 52 ± 16
3 | target 1 insU 3' of 20,insU 3' of 14 (mixed) RNA 1: CACCCGUGCAAAAAUGCAGGGGUCUAAAACUGAGCGGAUAACCUCUCUAUGG RNA 2: GGGAAUGGAUCCACAUCUACGAAUUCGUACCAUUAGAGAUGGUUAUCCGCUCACCGAGAUCGGAAGAGCACACGU | 53 ± 21
4 | target 1 insG 3' of 22,insG 3' of 2 (mixed) RNA 1: CACCCGUGCAAAAAUGCAGGGGUCUAAAACUGAGCGGAUAACCUCUCUAUGG RNA 2: GGGAAUGGAUCCACAUCUACGAAUUCGUACGCAUAGAGAGGUUAUCCGCUCGACCGAGAUCGGAAGAGCACACGU | 38 ± 5
5 | target 1 insC 3' of 20,insA 3' of 6 (mixed) RNA 1: CACCCGUGCAAAAAUGCAGGGGUCUAAAACUGAGCGGAUAACCUCUCUAUGG RNA 2: GGGAAUGGAUCCACAUCUACGAAUUCGUACCACUAGAGAGGUUAUCCAGCUCACCGAGAUCGGAAGAGCACACGU | 11.1 ± 0.6
6 | target 1 insA 3' of 21,insC 3' of 1 (mixed) RNA 1: CACCCGUGCAAAAAUGCAGGGGUCUAAAACUGAGCGGAUAACCUCUCUAUGG RNA 2: GGGAAUGGAUCCACAUCUACGAAUUCGUACCAAUAGAGAGGUUAUCCGCUCACCCGAGAUCGGAAGAGCACACGU | 13.7 ± 0.7
7 | target 1 insG 3' of 10,insA 3' of 4 (mixed) RNA 1: CACCCGUGCAAAAAUGCAGGGGUCUAAAACUGAGCGGAUAACCUCUCUAUGG RNA 2: GGGAAUGGAUCCACAUCUACGAAUUCGUACCAUAGAGAGGUUGAUCCGCAUCACCGAGAUCGGAAGAGCACACGU | 35 ± 5
8 | target 1 G5A,A16C (mixed) RNA 1: CACCCGUGCAAAAAUGCAGGGGUCUAAAACUGAGCGGAUAACCUCUCUAUGG RNA 2: GGGAAUGGAUCCACAUCUACGAAUUCGUACCAUAGCGAGGUUAUCCACUCACCGAGAUCGGAAGAGCACACGU | 57 ± 12
9 | target 1 C4G,G5C (mixed) RNA 1: CACCCGUGCAAAAAUGCAGGGGUCUAAAACUGAGCGGAUAACCUCUCUAUGG RNA 2: GGGAAUGGAUCCACAUCUACGAAUUCGUACCAUAGAGAGGUUAUCCCGUCACCGAGAUCGGAAGAGCACACGU | 15.7 ± 1
10 | target 1 insC 3' of 15,insA 3' of 11 (mixed) RNA 1: CACCCGUGCAAAAAUGCAGGGGUCUAAAACUGAGCGGAUAACCUCUCUAUGG RNA 2: GGGAAUGGAUCCACAUCUACGAAUUCGUACCAUAGAGCAGGUAUAUCCGCUCACCGAGAUCGGAAGAGCACACGU | 79 ± 18
11 | target 1 insA 3' of 22,insU 3' of 22 (mixed) RNA 1: CACCCGUGCAAAAAUGCAGGGGUCUAAAACUGAGCGGAUAACCUCUCUAUGG RNA 2: GGGAAUGGAUCCACAUCUACGAAUUCGUACAUCAUAGAGAGGUUAUCCGCUCACCGAGAUCGGAAGAGCACACGU | 12.5 ± 1
12 | target 1 insU 3' of 21,insU 3' of 18 (mixed) RNA 1: CACCCGUGCAAAAAUGCAGGGGUCUAAAACUGAGCGGAUAACCUCUCUAUGG RNA 2: GGGAAUGGAUCCACAUCUACGAAUUCGUACCUAUAUGAGAGGUUAUCCGCUCACCGAGAUCGGAAGAGCACACGU | 52 ± 5
13 | target 1 U11C,G13A (mixed) RNA 1: CACCCGUGCAAAAAUGCAGGGGUCUAAAACUGAGCGGAUAACCUCUCUAUGG RNA 2: GGGAAUGGAUCCACAUCUACGAAUUCGUACCAUAGAGAAGCUAUCCGCUCACCGAGAUCGGAAGAGCACACGU | 8.7 ± 1.3
14 | target 1 del5,del11 (mixed) RNA 1: CACCCGUGCAAAAAUGCAGGGGUCUAAAACUGAGCGGAUAACCUCUCUAUGG RNA 2: GGGAAUGGAUCCACAUCUACGAAUUCGUACCAUAGAGAGGUAUCCCUCACCGAGAUCGGAAGAGCACACGU | 30 ± 1.5
15 | target 1 insA 3' of 21,insU 3' of 1 (mixed) RNA 1: CACCCGUGCAAAAAUGCAGGGGUCUAAAACUGAGCGGAUAACCUCUCUAUGG RNA 2: GGGAAUGGAUCCACAUCUACGAAUUCGUACCAAUAGAGAGGUUAUCCGCUCAUCCGAGAUCGGAAGAGCACACGU | 18.5 ± 1.3
16 | target 1 insG 3' of 14,insU 3' of 4 (mixed) RNA 1: CACCCGUGCAAAAAUGCAGGGGUCUAAAACUGAGCGGAUAACCUCUCUAUGG RNA 2: GGGAAUGGAUCCACAUCUACGAAUUCGUACCAUAGAGAGGGUUAUCCGCUUCACCGAGAUCGGAAGAGCACACGU | 11.7 ± 1.1
17 | target 1 C2A,U11G (mixed) RNA 1: CACCCGUGCAAAAAUGCAGGGGUCUAAAACUGAGCGGAUAACCUCUCUAUGG RNA 2: GGGAAUGGAUCCACAUCUACGAAUUCGUACCAUAGAGAGGGUAUCCGCUAACCGAGAUCGGAAGAGCACACGU | 16.6 ± 1
18 | target 1 insA 3' of 21,insA 3' of 2 (mixed) RNA 1: CACCCGUGCAAAAAUGCAGGGGUCUAAAACUGAGCGGAUAACCUCUCUAUGG RNA 2: GGGAAUGGAUCCACAUCUACGAAUUCGUACCAAUAGAGAGGUUAUCCGCUCAACCGAGAUCGGAAGAGCACACGU | 17.7 ± 1
19 | target 1 insC 3' of 20,insU 3' of 20 (mixed) RNA 1: CACCCGUGCAAAAAUGCAGGGGUCUAAAACUGAGCGGAUAACCUCUCUAUGG RNA 2: GGGAAUGGAUCCACAUCUACGAAUUCGUACCACUUAGAGAGGUUAUCCGCUCACCGAGAUCGGAAGAGCACACGU | 18.3 ± 0.9
20 | target 1 C6A,U10C (mixed) RNA 1: CACCCGUGCAAAAAUGCAGGGGUCUAAAACUGAGCGGAUAACCUCUCUAUGG RNA 2: GGGAAUGGAUCCACAUCUACGAAUUCGUACCAUAGAGAGGUCAUCAGCUCACCGAGAUCGGAAGAGCACACGU | 18.8 ± 1.4
21 | target 1 G12C,A14C (mixed) RNA 1: CACCCGUGCAAAAAUGCAGGGGUCUAAAACUGAGCGGAUAACCUCUCUAUGG RNA 2: GGGAAUGGAUCCACAUCUACGAAUUCGUACCAUAGAGCGCUUAUCCGCUCACCGAGAUCGGAAGAGCACACGU | 89 ± 33
22 | target 1 insC 3' of 20,insG 3' of 16 (mixed) RNA 1: CACCCGUGCAAAAAUGCAGGGGUCUAAAACUGAGCGGAUAACCUCUCUAUGG RNA 2: GGGAAUGGAUCCACAUCUACGAAUUCGUACCACUAGAGGAGGUUAUCCGCUCACCGAGAUCGGAAGAGCACACGU | 11.8 ± 0.9
23 | target 1 insC 3' of 15,insU 3' of 12 (mixed) RNA 1: CACCCGUGCAAAAAUGCAGGGGUCUAAAACUGAGCGGAUAACCUCUCUAUGG RNA 2: GGGAAUGGAUCCACAUCUACGAAUUCGUACCAUAGAGCAGGUUUAUCCGCUCACCGAGAUCGGAAGAGCACACGU | 14.6 ± 0.9
24 | target 1 insG 3' of 10,insU 3' of 2 (mixed) RNA 1: CACCCGUGCAAAAAUGCAGGGGUCUAAAACUGAGCGGAUAACCUCUCUAUGG RNA 2: GGGAAUGGAUCCACAUCUACGAAUUCGUACCAUAGAGAGGUUGAUCCGCUCUACCGAGAUCGGAAGAGCACACGU | 24.7 ± 1.7
